The data set can be described thus: label from the status in PepcDB records.

Turning to “MIGPENCNSVSEPIAYVIILAGGRSSRMGYDKAQVMVDGRRLIDLCLESIASVHAHPIVVSGQDLQLTAAVTQVMEEPAFGGPVAGIAAGMRCCDTKAGLIGVIAVDAPRSGNYLNQLRRVVLTHPEVGVAHAVVEGYDQPLLAVWRYEALTQALHALGSPRNVAAKRLLRSATTPVIAVPVDSSARDYDTVAELSALGRVRLRLEHHHHHH”, the protein production result was “failed”.

Regarding “MIGQFLITFREALEAAIIVAIIIAYLKRTDREEQIRDVWIGVGLSVLASVVLGAIILGLYGGIEEKELFEGIASYLAVIVLTSMIYWMATKGRNIRAEIERKVSKAINPLALVGFTFIVVFREGLETVLFLTPFAIQDLGGTLMGLVSGIIGALILAYLIYGVGMRINLRTFFYYSSILLVFVAAGLAGYGTHELIEWAEEEGMNLGFIEETAYNLGIPEDSVFHHKGVIGSIFAVLFGYSVKMEWGRVIVQFGYLIVTLYLVLRAYGQETPTAKAEK”, the protein production result is listed as “failed”.

In the case of “MIGVLSGFFVVWAIILVGMFVGRRNILGENARSVLSSLTFFVASPALLFETLSKAKLHDVFAAPLLVTAVGAVVTGLLFFLIAKFWLKRAMPEALMSSMSSSLANSANLGIPIAVFVLGDASYVAPLLIFQLAFFTPLYLMALDASTSSHRTTPLRFLLMIVKNPMIVGSALGLLVAGTGFHVPTLILEPIHLIGGAAIPAMLMSFGMSLNGSKPLRKASGRRVDTLLASGFKLIVHPLIAYLFARFALGMDGHALFAVVVTSALPTAQNVFVAANRYQAGITVAKDTVLITTIVAVPAMIAVALLLT”, the protein production result is listed as “failed”.

Regarding “MIHDLLLACRSHNPEQLGIKAFNETTVIDQFIHPCEREIFMDIIKIIKVYQEVEQFTHSSGRKSDTHGELPDSLHGYYLLNLAKGIEMALEEYYAEIGRLEKYCLGNERNSLSYVYNALYAKFPLLVFMRNLITEIHVLNLRGCVLLHNLHQQCEHGDIQLEKAIKIIMKPVKNAFFSSLAHWLLFGVIDDVHSEFFIKFTPTDAVDGSSFSKSATCSLLSAEKNPEDYIWQYEVNMSQLPGFFSIVLAEKVLFVGQTVLVFKMGRNVKVKNKTDPLAAKLAELDSDDIYQLWSGRESEFFKMVVDLSNEDTINVFRLEKVIIDIKNYVSARLSEIAVNEVDLERQMGLIKDFFLLGRGEFYLEFCSQMVGTMETYREERFKNVTRSFELAATVTGITDDLDKFSLICQRSTSEPDDTSDFNFLQGLSLKYEYEWPLNLLFSPTTIERYNNIFRFLLIIRTYQYEIQRVWAKQTWRAKSAKDVPPNNKIITLRNYLMFFLNNMQYYIQVDVLESQFGILMNVIKSRSDFEVIQRAHTVFLANVLSHCFLLNESETQLNVTGSQNRNPIYGTLLKLFGICEKFAHMTQTKDPSDDLEDEVDQLNESFGVQIASLIQLLVDVKSASCLGPLSQLLLRLDFNCWFSASHNTSA”, the protein production result is recorded as “failed”.

As to “MIHDVDPTNDKYPAALRILHWVRALLTLGLIAAGWMMTVLADTVTEKFTLLYPWHKSFGVLVFLIVLAQLAIRAMSRLPGPAPLPAQERLLSQAVHVAMYALLLLVPLMGYAMSSSFTDSDGVFFFGIHLPELLPKDDDRFRLFQFLHKTLAYSLLALVILHVAGALKHRYFDKDRRTDVLPRII”, the protein production entry is reported as “failed”.

As for “MIHFSINKNLFLQALNTTKRAISSKNAIPILSTVKIDVTNEGITLIGSNGQISIENFISQKNEDAGLLITSLGSILLEASFFINVVSSLPDVTLDFKEIEQNQIVLTSGKSEITLKGKDSEQYPRIQEISASTPLILETKLLKKIINETAFAASTQESRPILTGVHFVLSQHKELKTVATDSHRLSQKKLTLEKNSDDFDVVIPSRSLREFSAVFTDDIETVEIFFANNQILFRSENISFYTRLLEGNYPDTDRLIPTDFNTTITFNVVNLRQSMERARLLSSATQNGTVKLEIKDGVVSAHVHSPEVGKVNEEIDTDQVTGEDLTISFNPTYLIDSLKALNSEKVTISFISAVRPFTLVPADTDEDFMQLITPVRTN”, the protein production result is “not failed”.

For “MIHGFLCSTKSALPHPLDDPAFVTASACRLASRPFRFMPQSSRRQNRSGTLVFANWNYVLLLIGVALIVVGFTAMYLEGQYLGFISLYVSPVLIIGGYAEIIYALLWAPDEQSAAEEQ”, the protein production result is listed as “failed”.

Turning to “MIHYYKLFWINALNIKGRARRKEFWYPFLMNILINIMLEIIFFLLPIPAIIEDTVGWIVYILILVAMFTVTVRRFHDVGMTMLIPIIIFLIAVINDFSEFINSDIPTLDNSALTVIAVIFGVVYIVILIVSLAVCCTSGQKETNQYGVNPKAVE”, the protein production entry is given as “failed”.

Regarding “MIIAGLDVGTTKVTTVIGELAPDGVLDIIGEGTVPSQGLRRGVVVNLERTTEAIRQSLFQAERVAGVKVERVVVGVGGPHLKSVTSHGLAAIRRGHTIAEADVERAIEQAKAYPFEGELELLHALPLEFKVDGQEGIRDPVGMAGVRLEVDVHLIAAGRGPLANLRRAVEEAGLALDAVCVQALASGLAVLTPEEEEMTVLLLDIGGGTTDVAVFRGGRLAHSAVVPLGGDHVTHDIAQLLKIPFEEAERVKRKYGAALPELADPELVLEINQEGGALGEVPAPELARIIRPRMREILHLARQSVDETLGPLEIQVNRVVLTGGGALLRGTDLLARQQYGLPVRVGKPQGVSGLTDVVASPAHAAAVGLVRYGASLPLKPQEAKRIREKPEDKPKGEGLWARIKEFLSNLF”, the protein production entry is “failed”.

Regarding “MIIETERLLLRPFNEQDVDALYLMNSNPAMLKYIPTAPFTDREQARELFHNVILQDYQQRGFGRWAVEHKADNRVIGFCGPKFIPEFNEVEIGYRYFPEYWGKGIGTEAAEAALSVFPQFGIKQTIALILEGNLGSETVAKRVGMYWREHSEFMGHK”, the protein production entry is recorded as “failed”.

On to “MIIGLLNQKGGVGKTTLSVNLAASFARTGARVLLIDVDPQGSALDWAAAREGAPLFPVVGLPRATVHKEITQIGHNYDHIIIDGPPRVTDLARSALMASDFVLIPVQPSPYDIWAADGIVKLIDEARVYKENLKSAFVINRKIVNTAIGRDVGEALGVYPVHVLSANVAQRVIFAEAATQGKTVYEVDKQGLAAAEIEAVAAEIKELAQLEHHHHHH”, for which the protein production result is “not failed”.

Regarding “MIILIWMVIMRHVFRLNLWFVFLATFLFTPYLYAEPIKEPSRPKIALVLAGGGAKGAAHIGVLKALEELNIPIDIITGTSMGAYVGGLYATGKSASEIEAYLHTVDWYSGYQDEVGREEKNSRDKKYEDRFAINPSLGIRKEGVKSPKSAIQGQNMLKILRETSGNPVSVASFDDFPIRYRSVATDIVSMEEVVIDHGLLVDAMMASMSVPGALPPYEFEDKLLIDGGVTNNMPVELAKEMGADIVIAVDISSNYMTKEQIGSLFDVASQLTNFMVKRSTQEQAEFLTDKDILLQPRVGDIETTDFSSMPRAYQEGYDTVMTLKSRLQSLAVAPNEYAQYQNKIKQQSANVRLAQGAIIDKVEVENRSHYESDKLERFIQFEQGTLLSSDYIEDKIHALYATNRFETITYLVEEDNNENVLKVTAKEKEWGPNYLNFRFFLEEDFDTHSQYGLGASINFTDLNDYGAELRTNVELGTDKIFDATIHYPFYLNHHFFVQSNMMYSDKKRSISTSSLEDKEPNSSMSFYPVNLRDFTVDALFGVEATKDQQLKTGILYARGSHELTGLSAYGRTEYERLGATLEYNFDSLDSISLPTHGSLINARYLYAFDKVNSRDVEGSDHSEQYIDEFTAEALFARSIARHTFISSAEYGITNSDDYLVPVNPIELGGFNHLSGLPRNSLIGANKIYGRLTYRYRWFENDLGMFKTAVYLGASAEYGGLWSMKSTDISSAPLIFSGSLFGGIDTPIGPIILSYGRAENGLDSVYLIVGNVE”, the protein production result is recorded as “failed”.

For “MIINITILEDNESDFITLSDSIKKWAANTGILINIIWLNSYKKFIKSLPTLKCDLFFSDIELNCNNSFTGIDACKQLRESGYTGIIIFLTAFKEYVFDGYDVQAFNYLLKPINYGTINNCLDKFIHLFSLEHHHHHH”, the protein production result is recorded as “not failed”.

As for “MIIRGIRGARINNEIFNLGLKFQILNADVVATKKHVLHAINQAKTKKPIAKSFWMEILVRASGQRQIHEAIKIIGAKDGNVCLICEDEETFRKIYELIGGEIDDSVLEINEDKERLIREIFKIRGFGNVVERVLEKIALIELKKE”, the protein production result is recorded as “not failed”.

“MIISLIAALAADRVIGMENAMPWHLPADLAWFKRNTLNKPVIMGRKTFESIGRPLPGRLNIVISSQPGTDERVTWAASIEEALAFAGNAEEVMVMGGGRVYKQFLDRANRMYLTHIDAEVGGDTHFPDYEPDEWESVFSEFHDADEANSHSYCFEILERR”: the protein production result was “not failed”.

On to “MIISNKSPISINNDPWEAYNDILEHNQLTLSNIEFTTTNLCNMRCSHCAVGYTLQTKDPDPLPMDIIYRRLDEIPNLRTLSITGGEPMFSKKSIKNVVKPLLKYAKHRGIYVQMNSNLTLPQDRYLDIAEY”, for which the protein production entry was “failed”.

(Values after a protein production outcome set (Wang et al. 2014).)
